According to patent US8273705B2, “Conversion of apoptotic proteins” (The Burnham Institute, priority 2002, dated 2012):
Changes are numbered by the printed parent chain. Names and notes keep the numbering of the source. “Also recorded” adds a separate entry of the source. Each block holds one molecule with its values, some of them ahead of it.

Tests used:
LNCaP cells = test: Dominant-negative Bcl-2/1-90 in LNCaP cells; assay type: cell-based
Protocol: The next approach involved using a fragment of Bcl-2 consisting of the TR3 interaction domain (loop region) to identify whether it could act in a dominant-negative fashion to inhibit TR3 mitochondrial targeting in LNCaP cells. Cells transiently transfected with the GFP-Bcl-2/1-90 mutant comprising of the first 90 N-terminal amino acids were treated with TPA to induce expression of TR3 and mitochondrial targeting of the endogenous TR3. […] Thus, Bcl-2/1-90 inhibits TR3 mitochondrial targeting, probably by competing with endogenous Bcl-2 for binding to TR3.
The effect of inhibiting endogenous Bcl-2 expression on the TR3-dependent apoptosis in MGC80-3 cells was next analyzed. […] However, 3-Cl-AHPC-induced apoptosis was suppressed by more than half (about 60%) in Bcl-2 siRNA-transfected cells. Similar results were obtained in H460 lung cancer cells. […] Thus, Bcl-2 can manifest a pro-apoptotic phenotype in settings where TR3 is expressed and targets to mitochondria.

Bcl-2 = biological target: T1, Bcl-2 (Homo sapiens, UniProt P10415); test: Co-IP assay of TR3 mutants with Bcl-2 in HEK293T cells; assay type: binding; conditions: GFP fusions co-transfected with Bcl-2 in HEK293T cells
T1 construct: expressed in transfected cells; host or cells: HEK293T
Protocol: TR3/Bcl-2 interaction assays—Reporter gene assays using NurRE-tk-CAT in CV-1 cells, and GST pull-down assay were described previously (Li, et al. 2000 Science 289, 1159-1164). For the mammalian two-hybrid assays, CV-1 cells were co-transfected with pcDNA-Gal4TAD-TR3 or pcDNA-Gal4TAD-TR3/ΔDBD and pcDNA-Gal4DBD-Bcl-2/ΔTM along with a luciferase reporter gene driven by four copies of the Gal4-binding site. The cells were harvested and reporter gene activity was measured. For Co-IP assays, HEK293T cells were transiently transfected with various expression plasmids using a modified calcium phosphate precipitation method (Wu et al, 1997) in the presence of caspase inhibitors (zVAD-fmk) to prevent degradation of TR3 protein due to apoptosis. Cells were suspended in lysis buffer (50 mM Tris-HCl, PH7.4; 150 mM NaCl; 20 mM EDTA; 1% NP-40; 1 mM PMSF; 50 μg/ml Leupeptin; […]; 0.1 mM Na3VO4; and 1 mM DTT). Cells extracts were cleared by incubation with the Protein A/G plus Agarose beads (Santa Cruz) and then incubated with appropriate antibody and 30 μl of Protein A or G plus Agarose beads overnight at 4° C. Beads were then washed and boiled in Laemmli gel-loading solution before performing SDS-PAGE/immunoblotting using the following polyclonal or monoclonal antibodies: monoclonal mouse anti-GFP (Medical and Biological Laboratories), monoclonal mouse anti-HA (Roche Molecular Biochemicals), monoclonal mouse anti-FLAG (Sigma), monoclonal mouse anti-Myc (Santa Cruz), polyclonal rabbit anti-TR3 (Active Motif), or monoclonal mouse anti-Bcl-2 (Santa Cruz). Immunoreactive products were detected by chemiluminescence with an enhanced chemiluminescence system (ECL) (Amersham).
TR3/ΔDBD, which can constitutively reside on mitochondria, was also analyzed by co-immunoprecipitation (Co-IP) assay for its interaction with Bcl-2. GFP-TR3/ΔDBD was transfected into human embryonic kidney cell line 293T alone or together with a Bcl-2 expression vector. The expressed GFP-TR3/ΔDBD mutant protein as then precipitated by using either anti-Bcl-2 antibody or control IgG and detected by western blotting using anti-GFP antibody. The same membranes were also blotted with anti-Bcl-2 antibody to determine precipitation specificity and efficiency. Input represents 10% of total cell extract used in the precipitation assays.
Several TR3 mutants were analyzed to determine the domain of TR3 which interacts with Bcl-2. The TR3 mutants are schematically represented in FIG. 1. A Co-IP assay was performed, as described above. […] Cell extracts were prepared and incubated with anti-Bcl-2 antibody or control IgG for Co-IP assays. Lysates were immunoprecipitated by using either polyclonal rabbit anti-Bcl-2 antibody or control IgG. Cell lysates and immunoprecipitates were examined by immunoblotting using anti-GFP antibody. The same membranes were also blotted with anti-Bcl-2 antibody (Santa Cruz) to determine IP specificity and efficiency. […] This Co-IP was specific because Bcl-2 co-transfection was necessary. […] Thus, the DC1 region in the TR3 LBD is involved in the Bcl-2 interaction.
To further determine the interaction of DC1 with Bcl-2, a region of hydrophobic amino acids ([…]—SEQ ID NO: 1) was deleted from TR3/ΔDBD, and the resulting mutant (TR3/ΔDBD/Δ471-488) was analyzed for its interaction with Bcl-2. TR3/ΔDBD/[…], with eighteen amino acids from 471 to 488 in the DC1 region deleted from TR3/ΔDBD, TR3/ΔDBD/I483A (with Ile483 replaced with Ala) and TR3/ΔDBD/L487A (with Leu487 replaced with Ala) were analyzed for their interaction with Bcl-2 by in vivo Co-IP assay as described above.

293T cells [1] = test: DAPI apoptosis assay in 293T cells; assay type: cell-based, human; conditions: 293T, co-expressed with Bcl-2, 36 h, DAPI
Protocol: Apoptosis assays—For nuclear morphological change analysis, cells were trypsinized, washed with PBS, fixed with 3.7% paraformaldehyde, and stained with DAPI (4,6-diamidino-2-phenylindole) (50 μg/ml) to visualize the nuclei by UV-microscopy. The percentages of apoptotic cells were determined by counting 300 GFP-positive cells, scoring cells having nuclear fragmentation and/or chromatin condensation.
DAPI staining was used to study the apoptotic effect of TR3/Bcl-2 interaction. 293T cells were transfected with GFP-TR3/ΔDBD alone or together with Bcl-2. After 36 h, nuclei were stained by DAPI and nuclear fragmentation and chromatin condensation were identified. Cells were also stained with anti-Bcl-2 antibody, followed by TRITC-conjugated secondary antibody (Sigma). Bcl-2 and GFP-ΔDBD expression and nuclear morphology were visualized by fluorescence microscopy, and the two images were overlaid. […] But, when Bcl-2 was cotransfected, a significant amount of transfected cells underwent apoptosis. For example, approximately 4% of cells transfected with either TR3/ΔDBD or Bcl-2 were apoptotic, compared to 35% of cell transfected with both. […] Cotransfection of Bcl-2, however, prevented BAX-induced apoptosis in these cells (see FIG. 4). The effect of Bcl-2 on apoptotic potential of TR3/ΔDBD in lung cancer and breast cancer cells was also investigated.
To characterize the pro-apoptotic mechanism of Bcl-2 in the setting of TR3-induced apoptosis, various TR3 mutants and Bcl-2 mutants were co-expressed in HEK293T cells. TR3 mutants were transfected into 293T cells together with or without Bcl-2 expression vector or with Bcl-2 mutants. After 36 h, nuclei were stained by DAPI. Cells displaying nuclear condensation or fragmentation were scored.
The role of various Bcl-2 mutants in mediating apoptosis induction by TR3 was next studied. […] The hydrophobic cleft of Bcl-2 is involved in its anti-apoptotic effect through its interaction with BH3 domain of pro-apoptotic molecules (Reed 1997 Semin Hematol 34:9-19; Reed 1997 Nature 387:773-776). To investigate whether the BH3 domain-binding motif of Bcl-2 is also involved in its apoptotic effect, various Bcl-2 mutants including Y108K Bcl-2, with a mutation in the BH3 domain-binding cleft, L137A, and G145A (all with impaired interaction with bax), were cotransfected together with TR3/ΔDBD. […] Bcl-2 mutations (Y108K, L137A, G145A) that impaired its interaction with Bax, abolished the Bcl-2 inhibitory effect on Bax-induced apoptosis, consistent with previous observations that the hydrophobic cleft of Bcl-2 is essential for its anti-apoptotic effect. […] Thus, an intact BH3 domain-binding motif in Bcl-2 is involved in its pro-apoptotic effect. In contrast to the inhibitory effect of Bcl-2 on Bax-induced apoptosis TR3/ΔDBD-induced apoptosis was augmented by co-expression of Bcl-2 in HEK293T cells.
Mitochondrial targeting of TR3 has been previously identified as being involved in its apoptotic effect. To study whether mitochondrial localization of the TR3/ΔDBD/Bcl-2 complex was involved in their apoptotic effect, TR3/ΔDBD was cotransfected with Bcl-2/ATM, a Bcl-2 lacking its transmembrane domain. […] Thus, mitochondrial localization of TR3/ΔDBD/Bcl-2 complex is involved in this apoptotic effect.

293T cells [2] = test: Confocal microscopy of mitochondrial targeting in 293T cells; assay type: cell-based, human
Protocol: Subcellular localization assays—Cells were seeded onto cover-slips in 6-well plates overnight, then transiently transfected with GFP-fusion expression plasmids. After 16 hours, cells were washed with PBS and fixed in 4% paraformaldehyde. For mitochondrial staining, cells were then incubated with anti-Hsp60 goat IgG (Santa Cruz, USA), followed by anti-goat IgG conjugated with Cy3 (Sigma). For cyt c staining, cells were incubated with monoclonal anti-cyt c IgG (PharMingen), followed by anti-mouse IgG conjugated with Cy5 (Amersham). Fluorescent images were collected and analyzed using a MRC-1024 MP laser-scanning confocal microscope (Bio-Rad). Subcellular fractionation assays were performed as described (Li, et al. 2000 Science 289:1159-1164). Briefly, cells (1×10^7 cells) suspended in 0.5 ml hypotonic buffer (5 mM Tris-HCl, pH 7.4, 5 mM KCl, 1.5 mM MgCl2, 0.1 mM EGTA, pH 8.0, and 1 mM DTT) were homogenized and cell extracts were centrifuged at 500×g for 5 min. The resulting supernatant was centrifuged at 10,000×g for 30 min at 4° C. to obtain the HM fraction. HM fraction was resuspended in 100 μl lysis buffer (10 mM Tris, pH 7.4, 150 mM NaCl, 1% Triton X-100, 5 mM EDTA, pH 8.0) for immunoblotting analysis.
A. confocal microscopy—First an experiment was performed to determine whether the deletion mutant TR3/ΔDBD targets mitochondria via its interaction with Bcl-2. In confocal microscopy analysis, GFP-TR3/ΔDBD and Bcl-2 were transfected into 293T cells alone or together. […] Bcl-2, TR3/ΔDBD and mitochondria (Hsp60) were visualized using confocal microscopy and the three images were overlaid.

T1 sequence (P10415 whole entry, the tested form may be a part): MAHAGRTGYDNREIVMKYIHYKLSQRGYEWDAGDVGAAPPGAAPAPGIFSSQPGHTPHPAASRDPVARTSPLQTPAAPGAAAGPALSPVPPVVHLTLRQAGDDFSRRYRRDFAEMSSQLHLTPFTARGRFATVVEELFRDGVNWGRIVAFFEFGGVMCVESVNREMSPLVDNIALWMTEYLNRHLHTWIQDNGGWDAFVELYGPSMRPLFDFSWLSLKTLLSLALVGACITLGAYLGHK

B1: Bcl-2/1-90: Bcl-2 mutant comprising the first 90 N-terminal amino acids (protein, UniProt P10415 1-90, looked up, fragment)
chain: MAHAGRTGYDNREIVMKYIHYKLSQRGYEWDAGDVGAAPPGAAPAPGIFSSQPGHTPHPAASRDPVARTSPLQTPAAPGAAAGPALSPVP
modifications: GFP fusion
notes: Bcl-2 mutant comprising the first 90 N-terminal amino acids
TR3-dependent apoptosis induced by TPA and 3-Cl-AHPC (LNCaP cells; LNCaP cells): suppressed TR3-dependent apoptosis
mitochondrial targeting of endogenous TR3 (LNCaP cells; LNCaP cells treated with TPA): TR3 failed to target mitochondria

B3: DC1: C-terminal fragment of TR3 (467-536 aa), 69 amino acids (protein, listed as Homo sapiens)
chain: GLVLHRLQCARGFGDWIDSILAFSRSLHSLLVDVPAFACLSALVLITDRHGLQEPRRVEELQNRIASCLK
interaction with Bcl-2 (Co-IP) (Bcl-2): strongly interact with Bcl-2
apoptosis (293T cells [1]): potently induced apoptosis

B4: TR3/ΔDBD/L487A: TR3/ΔDBD with Leu487 replaced with Ala (protein)
chain: MPCIQAQYGTPAPSPGPRDHLASDPLTPEFIKPTMDLASPEAAPAAPTALPSFSTFMDGYTGEFDTFLYQLPGTVQPCSSASSSASSTSSSSATSPASASFKFEDFQVYGCYPGPLSGPVDEALSSSGSDYYGSPCSAPSPSTPSFQPPQLSPWDGSFGHFSPSQTYLVLHRLQCARGFGDWIDSIAAFSRSLHSLLVDVPAFACLSALVLITDRHGLQEPRRVEELQNRIASCLKEHVAAVAGEPQPASCLSRLLGKLPELRTLCTQGLQRIFYLKLEDLVPPPPIIDKIFMDTLPF
modifications: left off: large carriers; small tags and cut ends
notes: TR3/ΔDBD with Leu487 replaced with Ala
interaction with Bcl-2 (Co-IP) (Bcl-2): significantly impaired the interaction; also recorded: largely abolished the interaction
colocalization with mitochondria (293T cells [2]): failed to colocalize with mitochondria
apoptosis (293T cells [1]): failed to confer the apoptotic potential of Bcl-2

Further lines, with some results ahead:

interaction with Bcl-2 (Co-IP) (Bcl-2): largely abolished the interaction
B2: TR3/ΔDBD/ΔDC1: TR3/ΔDBD with DC1 deleted (protein)
chain: MPCIQAQYGTPAPSPGPRDHLASDPLTPEFIKPTMDLASPEAAPAAPTALPSFSTFMDGYTGEFDTFLYQLPGTVQPCSSASSSASSTSSSSATSPASASFKFEDFQVYGCYPGPLSGPVDEALSSSGSDYYGSPCSAPSPSTPSFQPPQLSPWDGSFGHFSPSQTYEHVAAVAGEPQPASCLSRLLGKLPELRTLCTQGLQRIFYLKLEDLVPPPPIIDKIFMDTLPF
modifications: left off: large carriers; small tags and cut ends
notes: TR3/ΔDBD with DC1 deleted
apoptosis (293T cells [1]): failed to confer the apoptotic potential of Bcl-2
apoptosis (293T cells [1]; listed as TR3/ΔDBD/ADC1): did not result in apoptosis

interaction with Bcl-2 (Co-IP) (Bcl-2): largely abolished the interaction
B5: TR3/ΔDBD/I483A: TR3/ΔDBD with Ile483 replaced with Ala (protein)
chain: B4 chain with I183A, A187L
modifications: left off: large carriers; small tags and cut ends
notes: TR3/ΔDBD with Ile483 replaced with Ala
apoptosis (293T cells [1]): failed to confer the apoptotic potential of Bcl-2
